Measured values as given in the supplement of paper PMC9233669.
Variants at the floor of the assay were thinned out.

What was measured:
[1] = tested on: biotinyl-Phe-oxazolone; assay: self-aminoacylation, catalytic enhancement (BFO) (fold over background); higher = more active; k-Seq, kA / k0A0; sequences stand for … in GGGAAUGGAUCCACAUCUACGAAUUC…UUCACUGCAGACUUGACGAAGCUG
Method in brief: (§1)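 Mutagenized RNA pools with a 21-nt variable region (0.43 μM) reacted with each biotinyl-aminoacyl-oxazolone at 2–1250 μM. Reactions ran in 50 μL HEPES/NaCl/KCl/MgCl2/CaCl2 buffer with 5% acetonitrile, pH 6.9–7.0, for 90 minutes at room temperature. Streptavidin-captured RNA was quantified by triplicate qPCR and Illumina sequencing, and per-sequence fraction reacted was fit to a pseudo-first-order model with 1000 bootstraps. Catalytic enhancement is median kA divided by the uncatalyzed rate, the low-activity peak of a bimodal Gaussian fit.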

[2] = tested on: biotinyl-Ile-oxazolone; assay: self-aminoacylation, catalytic enhancement (BIO) (fold over background); higher = more active; k-Seq, kA / k0A0; sequences stand for … in GGGAAUGGAUCCACAUCUACGAAUUC…UUCACUGCAGACUUGACGAAGCUG
Method in brief: as §1

[3] = tested on: biotinyl-Met-oxazolone; assay: self-aminoacylation, catalytic enhancement (BMO) (fold over background); higher = more active; k-Seq, kA / k0A0; sequences stand for … in GGGAAUGGAUCCACAUCUACGAAUUC…UUCACUGCAGACUUGACGAAGCUG
Method in brief: as §1

[4] = tested on: biotinyl-Val-oxazolone; assay: self-aminoacylation, catalytic enhancement (BVO) (fold over background); higher = more active; k-Seq, kA / k0A0; sequences stand for … in GGGAAUGGAUCCACAUCUACGAAUUC…UUCACUGCAGACUUGACGAAGCUG
Method in brief: as §1

[5] = tested on: biotinyl-Leu-oxazolone; assay: self-aminoacylation, catalytic enhancement (BLO) (fold over background); higher = more active; k-Seq, kA / k0A0; sequences stand for … in GGGAAUGGAUCCACAUCUACGAAUUC…UUCACUGCAGACUUGACGAAGCUG
Method in brief: as §1

[6] = tested on: biotinyl-Trp-oxazolone; assay: self-aminoacylation, catalytic enhancement (BWO) (fold over background); higher = more active; k-Seq, kA / k0A0; sequences stand for … in GGGAAUGGAUCCACAUCUACGAAUUC…UUCACUGCAGACUUGACGAAGCUG
Method in brief: as §1

Sequence	self-aminoacylation [1]	self-aminoacylation [2]	self-aminoacylation [3]	self-aminoacylation [4]	self-aminoacylation [5]	self-aminoacylation [6]
UUACACCUAGGUCAUCGGGUG [Fam2.2 aminoacylation ribozyme variant]	10.5	2.25	1.92	2.15	1.87	3
UUACUUCAAACAAUCGGCCUG [Fam1A.1 aminoacylation ribozyme variant]	95.3	2.69	2.35	2.3	4.03	43.2
UUACUUCAAACAAUCGGUCCG [Fam1A.1 aminoacylation ribozyme variant]	1.69	0.82	0.942	0.891	0.937	1.64
UUACUUCAAACAAUCGGUGUG [Fam1A.1 aminoacylation ribozyme variant]	7.15	1.51	1.97	1.46	2.36	5.33
UUACUUCAAACAAUUGGUCUG [Fam1A.1 aminoacylation ribozyme variant]	1.76	1.43	1.2	1.12	1.14	1.61
UUCACCCUGGUCAUCGAGUGA [Fam2.1 aminoacylation ribozyme variant]	13.2	5.88	11.3	6.29	10.6	12.7
UUGCACCUAGGUCAUCGGGUG [Fam2.2 aminoacylation ribozyme variant]	38.8	3.11	3.89	3.66	4.63	5.53
UUUAACCUAGGUCAUCGGGUG [Fam2.2 aminoacylation ribozyme variant]	36.3	5.19	5.87	4.48	7.42	7.19
UUUAACCUGGUCAUCGAGUGA [Fam2.1 aminoacylation ribozyme variant]	11.2	4.01	5.83	4.17	5.8	8.93
UUUACCCAGGUCAUCGAGUGA [Fam2.1 aminoacylation ribozyme variant]	21.9	3.49	5.36	3.55	5.06	6
UUUACCCCGGUCAUCGAGUGA [Fam2.1 aminoacylation ribozyme variant]	35.5	3.31	6.14	3.64	6.37	6.13
UUUACCCUGGGCAUCGAGUGA [Fam2.1 aminoacylation ribozyme variant]	10.4	2.3	4.18	2.83	4.84	5.06
UUUACCCUGGUAAUCGAGUGA [Fam2.1 aminoacylation ribozyme variant]	58.7	4.2	9.02	3.97	8.58	10.4
UUUACCCUGGUCAUCAAGUGA [Fam2.1 aminoacylation ribozyme variant]	3.22	1.25	2.24	1.63	1.85	3.07
UUUACCCUGGUCAUCGAGUGG [Fam2.1 aminoacylation ribozyme variant]	154	8.85	31.5	9.95	27.3	29.3
UUUACCCUGGUCAUCGAGUUA [Fam2.1 aminoacylation ribozyme variant]	16.7	3.03	7.29	3.5	6.2	6.24
UUUACCCUGGUCAUUGAGUGA [Fam2.1 aminoacylation ribozyme variant]	38.1	3.76	7.86	3.91	7.06	10.1
UUUACCCUGGUUAUCGAGUGA [Fam2.1 aminoacylation ribozyme variant]	25.7	4.28	7.81	4.19	7.57	10.6
UUUACCCUGUUCAUCGAGUGA [Fam2.1 aminoacylation ribozyme variant]	5.37	2.21	4.11	2.56	3.91	5.71
UUUACCCUUGUCAUCGAGUGA [Fam2.1 aminoacylation ribozyme variant]	19.9	3.37	6.04	3.38	6.18	7.94
UUUACCGUGGUCAUCGAGUGA [Fam2.1 aminoacylation ribozyme variant]	17.7	3.2	5.63	3.63	5.18	7.07
UUUCACCUAGGACAUCGGGUG [Fam2.2 aminoacylation ribozyme variant]	26.8	3	3.39	3.19	3.31	4.64
UUUCACCUAGUUCAUCGGGUG [Fam2.2 aminoacylation ribozyme variant]	18.6	2.44	2.6	3.09	2.99	3.92
UUUCGCCUAGGUCAUCGGGUG [Fam2.2 aminoacylation ribozyme variant]	44.1	5.36	6.25	5.33	7.49	7.75
UUUGACCUAGGUCAUCGGGUG [Fam2.2 aminoacylation ribozyme variant]	26.6	4.3	4.5	4.23	5.93	6.51
